Reference: paper PMC8948278 (2022)

Target: Recombinant SARS-CoV-2 S trimer protein (ACRO Biosystems SPN-C52H9) (SARS-CoV-2, UniProt P0DTC2)
Assay: SPR

B1: KIH format bivalent MW01 (MW01/KIH) (antibody, V domains shown)
VH: EVQLVQSGAEVKKPGSSVKVSCKASGGTFSSFSISWVRQAPGQGLEWMGRIIPVLGIANYAQEVQGRVTITADKSTSTAYMELSSLRSEDTAVYFCTTDRFVEPATGPFFDYWGQGTLVTVSS
VL: EIVMTQSPATLSVSPGERATLSCRASQSVSSNLAWYQQKPGQAPRLLIYGASTRATGIPARFSGSGSGTEFTLTISSLQSEDFAVYYCQQYSNWLTFGGGTKVEIK
With B1 the koff was 0.000408 s⁻¹.
